Substitutions are numbered along the chain they refer to. One block for each binder: values may come before it.
Assays:
[1] = biological target: T1, human beta-dystroglycan extracellular domain (soluble) (human, UniProt Q14118 654-749); assay: sequential SPR (Biacore T100): antibody captured on a Protein G chip, 200 nM human LG4/5 for 60 s, then 200 nM human beta-DG for 60 s
T1 construct: extracellular domain; The expression construct of soluble human beta-DG is not described (only the mouse one); also called hBeta-DG; hbeta-DG
T1 sequence (looked up): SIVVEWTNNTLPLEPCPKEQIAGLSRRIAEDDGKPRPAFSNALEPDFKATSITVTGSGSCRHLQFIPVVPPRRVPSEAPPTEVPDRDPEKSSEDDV
Procedure: For sequential dual binding of antigens to trivalent antibodies, a Series S Sensor Protein G chip (GE Healthcare, 29179315) was used with a T100 Biacore. This chip was used to immobilize trivalent or parental antibody to the surface (60 seconds with 5 ug/mL of antibody). After capture, 200 nM of LG4/5 was flowed over the chip for 60 seconds followed by 200 nM of beta-DG for 60 seconds. Binding to the trivalent antibody was observed by the change of mass detected on the chip in relative units (RU).
Additionally, surface plasmon resonance was performed to show sequential binding of the human laminin-2 and beta-DG antigens (FIG. 1C).

[2] = biological target: T2, human laminin G-like 4 and 5 domains of laminin-2 (hLG-4/5), soluble (human, UniProt P24043 2729-3122, biotinylated in the ELISA of Example 6); assay: SPR, antibody on Protein G chip, LG4/5 in flow, 1:1 model (table title says beta-DG; paragraph 445 says human laminin-2)
T2 construct: range 2729-3122; also called human LG-4/5; hLG4/LG5; not shown: Avi tag and HPC4 tag left after TEV cleavage of the N-terminal mIgG2a fusion partner
T2 sequence (looked up): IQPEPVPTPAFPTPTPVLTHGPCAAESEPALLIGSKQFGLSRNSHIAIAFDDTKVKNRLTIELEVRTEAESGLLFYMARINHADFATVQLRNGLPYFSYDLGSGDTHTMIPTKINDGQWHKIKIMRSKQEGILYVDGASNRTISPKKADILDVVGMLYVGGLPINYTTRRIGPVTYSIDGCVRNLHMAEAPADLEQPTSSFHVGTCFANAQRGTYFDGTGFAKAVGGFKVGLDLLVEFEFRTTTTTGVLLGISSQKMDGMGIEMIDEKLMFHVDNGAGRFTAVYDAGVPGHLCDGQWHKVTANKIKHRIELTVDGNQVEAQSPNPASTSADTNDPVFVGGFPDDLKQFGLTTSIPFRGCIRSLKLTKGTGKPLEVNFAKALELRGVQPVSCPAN
Procedure: (§1) Data was evaluated with a 1:1 binding model using the BIAevaluation software.
(§2) SPR was used as described above to analyze the kinetics of triAb binding to laminin-2 (Table N) or beta-DG (Table O).

[3] = biological target: T3, human laminin G-like 5 domain of laminin-2 (hLG-5) (human, UniProt P24043 2936-3122, soluble biotinylated protein (Avi tag)); assay: SPR (Biacore) kinetics; mAb immobilized, hLG-5 in flow
T3 construct: The construct used for the crystal structure with C21 Fab is not described; the same entry is used; also called human LG-5; human LG5; not shown: N-terminal Avi and HPC4 tags
T3 sequence: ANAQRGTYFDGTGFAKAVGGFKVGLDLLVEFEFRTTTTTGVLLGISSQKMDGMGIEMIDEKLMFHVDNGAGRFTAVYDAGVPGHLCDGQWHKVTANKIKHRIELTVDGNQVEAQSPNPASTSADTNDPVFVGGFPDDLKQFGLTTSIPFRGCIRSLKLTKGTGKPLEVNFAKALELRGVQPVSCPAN

[4] = biological target: T1, human beta-dystroglycan extracellular …; assay: SPR, antibody on Protein G chip, beta-DG in flow, 1:1 model (table title says laminin-2; paragraph 445 says human beta-DG)
Procedure: as §1, §2

- binding result [1]: no binding (tested: 200 nM)
B1: humanized anti-laminin-2 antibody C3_Hu10 (antibody, V domains shown)
VH: EVQLVESGGGLVKPGGSLRLSCAASGFTFSSYTMSWVRQAPGKGLEWVASISSSGSNTYYPDSVKGRFTISRDNAKNNLYLQMNSLRAEDTALYYCARFDYGSSLDSWGQGTLLTVSS
VL: EIVLTQSPDFLSVTPKEKVTLTCRASQSISNNLHWYQQKSDQSPKLLIKYASQSISGIPSRFSGSGSGTDFTLTINSVEAEDAATYFCQQSKSWPRTFGGGTKLEIK
notes: Called monovalent anti-LG4/5 antibody

- Kd [2]: 8.99 nM
- koff [2]: 0.00144 s⁻¹
- kon [2]: 160000 M⁻¹ s⁻¹
- binding result [1]: no binding (tested: 200 nM)
B2: humanized anti-laminin-2 antibody C21_Hu21 (antibody, V domains shown)
VH: B1 VH with K13Q, S50T, S56D, A75S, N78T, N84S, L113T
VL: B1 VL with K16G, N32Y, I58V, N76S, A83F
notes: as for B1

- binding result [1]: no binding (tested: 200 nM)
B3: humanized anti-laminin-2 antibody C21_Hu11 (antibody, V domains shown)
VH: B1 VH
VL: B1 VL with T22S, N32Y, T74S
notes: as for B1

- Kd [2]: 9.83 nM
- koff [2]: 0.00117 s⁻¹
- kon [2]: 119000 M⁻¹ s⁻¹
- binding result [1]: no binding (tested: 200 nM)
B4: humanized anti-laminin-2 antibody C3_Hu11 (antibody, V domains shown)
VH: B1 VH
VL: B1 VL with S30G
notes: as for B1

- Kd [3]: 9.24 nM
- koff [3]: 0.000915 s⁻¹
- kon [3]: 99000 M⁻¹ s⁻¹
B5: anti-laminin-2 (anti-LG-5) monoclonal antibody clone AN01 (antibody, V domains shown)
VH: EVQLQQSGPELVKPGASVKMSCKASGYTFTSYNIHWVKQKPGQGLEWIGYINPYNDGTKYSEKFKGKATLTSDRSSSTAYMEVSSLTSEDSAVYYCAIYGNSYWGQGSTLTVSS
VL: DIVMTQAAPSIPVTPGESVSISCRSSKSLLHSNGNTYLYWFLQRPGQSPQRLIYYMSNLDSGVPDRFSGRGSGTDFTLRISRVEAEDVGVYYCMQGLEYPYTFGGGTKLEIK
notes: tested as immobilized mAb

- Kd [4]: 0.796 nM
- koff [4]: 0.00202 s⁻¹
- kon [4]: 2.54e+06 M⁻¹ s⁻¹
B6: humanized anti-beta-DG antibody AS30SS_Hu6 (antibody, V domains shown)
VH: QVQLVQSGAEVVKPGSSVKVSCEASGFTFTDSVITWVRQRPGQGLEWIGEIYPGSGNFYYNEKFQGRVTITADKSTSTAYMELSSLRSEDTAVYFCAMRRSSWGQGTLVTVSS
VL: DVVMTQTPLSLSVTPGQPASISCKSSQTIVHSNSKTYLEWYLQKPGQSPQLLIYKVSSRFSGVPDRFSGSGSGTDFTLKISRVEAEDVGVYYCFQGSHVPLTFGQGTKLEIK
notes: also called AS30_Hu6; AS30 Hu6

- Kd [4]: 1.3 nM
- koff [4]: 0.004 s⁻¹
- kon [4]: 3.07e+06 M⁻¹ s⁻¹
B7: triAb 3439 (bispecific antibody)
light 1: EIVLTQSPDFLSVTPKEKVTLTCRASQSISNNLHWYQQKSDQSPKLLIKYASQSISGIPSRFSGSGSGTDFTLTINSVEAEDAATYFCQQSKSWPRTFGGGTKLEIKDKTHTEIVLTQSPDFLSVTPGEKVTLTCRASQSISNYLHWYQQKSDQSPKLLIKYASQSISGVPSRFSGSGSGTDFTLTISSVEAEDFATYFCQQSKSWPRTFGGGTKLEIKDKTHTRTVAAPSVFIFPPSDEQLKSGTASVVCLLNNFYPREAKVQWKVDNALQSGNSQESVTEQDSKDSTYSLSSTLTLSKADYEKHKVYACEVTHQGLSSPVTKSFNRGEC
heavy 1: EVQLVESGGGLVQPGGSLRLSCAASGFTFSSYTMSWVRQAPGKGLEWVATISSSGDNTYYPDSVKGRFTISRDNSKNTLYLQMSSLRAEDTALYYCARFDYGSSLDSWGQGTTLTVSSDKTHTEVQLVESGGGLVKPGGSLRLSCAASGFTFSSYTMSWVRQAPGKGLEWVASISSSGSNTYYPDSVKGRFTISRDNAKNNLYLQMNSLRAEDTALYYCARFDYGSSLDSWGQGTLLTVSSDKTHTASTKGPSVFPLAPSSKSTSGGTAALGCLVKDYFPEPVTVSWNSGALTSGVHTFPAVLQSSGLYSLSSVVTVPSSSLGTQTYICNVNHKPSNTKVDKKVEPKSCDKTHTCPPCPAPELLGGPSVFLFPPKPKDTLYITREPEVTCVVVDVSHEDPEVKFNWYVDGVEVHNAKTKPREEQYNNASRVVSVLTVLHQDWLNGKEYKCKVSNKALPAPIEKTISKAKGQPREPQVYTLPPCRDELTKNQVSLWCLVKGFYPSDIAVEWESNGQPENNYKTTPPVLDSDGSFFLYSKLTVDKSRWQQGNVFSCSVMHEALHNHYTQKSLSLSPG
heavy 2: QVQLVQSGAEVVKPGSSVKVSCEASGFTFTDSVITWVRQRPGQGLEWIGEIYPGSGNFYYNEKFQGRVTITADKSTSTAYMELSSLRSEDTAVYFCAMRRSSWGQGTLVTVSSASTKGPSVFPLAPSSKSTSGGTAALGCLVKDYFPEPVTVSWNSGALTSGVHTFPAVLQSSGLYSLSSVVTVPSSSLGTQTYICNVNHKPSNTKVDKKVEPKSCDKTHTCPPCPAPELLGGPSVFLFPPKPKDTLYITREPEVTCVVVDVSHEDPEVKFNWYVDGVEVHNAKTKPREEQYNNASRVVSVLTVLHQDWLNGKEYKCKVSNKALPAPIEKTISKAKGQPREPQVCTLPPSRDELTKNQVSLSCAVKGFYPSDIAVEWESNGQPENNYKTTPPVLDSDGSFFLVSKLTVDKSRWQQGNVFSCSVMHEALHNRFTQKSLSLSPG
light 2: DVVMTQTPLSLSVTPGQPASISCKSSQTIVHSNSKTYLEWYLQKPGQSPQLLIYKVSSRFSGVPDRFSGSGSGTDFTLKISRVEAEDVGVYYCFQGSHVPLTFGQGTKLEIKRTVAAPSVFIFPPSDEQLKSGTASVVCLLNNFYPREAKVQWKVDNALQSGNSQESVTEQDSKDSTYSLSSTLTLSKADYEKHKVYACEVTHQGLSSPVTKSFNRGEC
notes: Trivalent: CODV arm VH1/VL1 C21_Hu21, VH2/VL2 C3_Hu10

- Kd [4]: 1.9 nM
- koff [4]: 0.00404 s⁻¹
- kon [4]: 2.13e+06 M⁻¹ s⁻¹
B8: triAb 3429 (bispecific antibody)
light 1: EIVLTQSPDFLSVTPGEKVTLTCRASQSISNYLHWYQQKSDQSPKLLIKYASQSISGVPSRFSGSGSGTDFTLTISSVEAEDFATYFCQQSKSWPRTFGGGTKLEIKDKTHTEIVLTQSPDFLSVTPKEKVTLTCRASQSIGNNLHWYQQKSDQSPKLLIKYASQSISGIPSRFSGSGSGTDFTLTINSVEAEDAATYFCQQSKSWPRTFGGGTKLEIKDKTHTRTVAAPSVFIFPPSDEQLKSGTASVVCLLNNFYPREAKVQWKVDNALQSGNSQESVTEQDSKDSTYSLSSTLTLSKADYEKHKVYACEVTHQGLSSPVTKSFNRGEC
heavy 1: EVQLVESGGGLVKPGGSLRLSCAASGFTFSSYTMSWVRQAPGKGLEWVASISSSGSNTYYPDSVKGRFTISRDNAKNNLYLQMNSLRAEDTALYYCARFDYGSSLDSWGQGTLLTVSSDKTHTEVQLVESGGGLVQPGGSLRLSCAASGFTFSSYTMSWVRQAPGKGLEWVATISSSGDNTYYPDSVKGRFTISRDNSKNTLYLQMSSLRAEDTALYYCARFDYGSSLDSWGQGTTLTVSSDKTHTASTKGPSVFPLAPSSKSTSGGTAALGCLVKDYFPEPVTVSWNSGALTSGVHTFPAVLQSSGLYSLSSVVTVPSSSLGTQTYICNVNHKPSNTKVDKKVEPKSCDKTHTCPPCPAPELLGGPSVFLFPPKPKDTLYITREPEVTCVVVDVSHEDPEVKFNWYVDGVEVHNAKTKPREEQYNNASRVVSVLTVLHQDWLNGKEYKCKVSNKALPAPIEKTISKAKGQPREPQVYTLPPCRDELTKNQVSLWCLVKGFYPSDIAVEWESNGQPENNYKTTPPVLDSDGSFFLYSKLTVDKSRWQQGNVFSCSVMHEALHNHYTQKSLSLSPG
heavy 2: B7 heavy 2
light 2: B7 light 2
notes: Trivalent: CODV arm VH1/VL1 C3_Hu11, VH2/VL2 C21_Hu21

From US20180237511A1 (Sanofi, published 2018)
